This test deals with Aβ1-42 fibrils (UniProt P05067). In words: flow cytometry on beads; Aβ fibrils (1% biotinylated, 1 μM) immobilised on streptavidin Dynabeads, blocked with 10% milk; antibody dilutions in PBSB with 1% milk, 3 h, 25 °C; detected with goat anti-human Fc AF647; apparent affinity (EC50).

B1: crenezumab (variable domains grafted onto an IgG1 scaffold with a human Fc fragment) (antibody, V domains shown)
VH: EVQLVESGGGLVQPGGSLRLSCAASGFTFSSYGMSWVRQAPGKGLELVASINSNGGSTYYPDSVKGRFTISRDNAKNSLYLQMNSLRAEDTAVYYCASGDYWGQGTTVTVSS
VL: DIVMTQSPLSLPVTPGEPASISCRSSQSLVYSNGDTYLHWYLQKPGQSPQLLIYKVSNRFSGVPDRFSGSGSGTDFTLKISRVEAEDVGVYYCSQSTHVPWTFGQGTKVEIK
B1: the EC50 was 9 nM.

The values above are taken from PMC8081927.
